# Paper PMC3536884
# Target: C9-tagged CCR5 (human) (UniProt P51681)
# Assay: SPR
# UniProt P51681, sequence (P51681 whole entry): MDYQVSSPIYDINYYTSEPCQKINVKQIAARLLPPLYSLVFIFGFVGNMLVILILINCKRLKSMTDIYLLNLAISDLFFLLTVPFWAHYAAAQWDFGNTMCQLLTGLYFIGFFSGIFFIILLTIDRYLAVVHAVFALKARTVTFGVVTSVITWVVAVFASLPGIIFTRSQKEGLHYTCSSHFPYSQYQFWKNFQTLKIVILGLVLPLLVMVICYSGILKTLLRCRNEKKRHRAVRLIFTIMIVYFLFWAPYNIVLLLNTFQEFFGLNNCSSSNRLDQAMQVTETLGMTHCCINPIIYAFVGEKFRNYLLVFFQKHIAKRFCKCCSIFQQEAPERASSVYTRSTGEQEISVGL
substance,measurement,value
"LukE (leukotoxin ED subunit E), His-tagged (natural protein)",Kd,39.6 nM
